Paper PMC4541418

Tested on: Fur (HpFur) (Helicobacter pylori (G27?))
Experiment: DNase I footprinting
Conditions: pOPI and pOPII; 150 uM dipyridyl, 1 mM DTT then 5 mM H2O2, versus no H2O2; 10 mM Tris-Cl pH 7.85, 50 mM NaCl, 10 mM KCl, 0.02% Igepal CA-630, 10% glycerol, 0.1 mM DTT (plus 1 or 5 mM DTT or 5 mM H2O2); 150 uM (NH4)2Fe(SO4)2 or …

Ppfr probe (apo-operators pOPI, pOPII, pOPIII; holo-operator pOPIV)
binding signal (fold higher Fur needed): 5
